Measurements: patent US20210292392A1 (TSB THERAPEUTICS BEIJING, published 2021)

molecular target: T1, full length spike (S) protein of SARS-CoV-2 (SARS-CoV-2, UniProt P0DTC2 14-1273); assay: cell-based or functional assay

| Binder | IC50, pseudovirus neutralization [µg/mL] | Neutralizing activity (%) Mean at 0.0228624 µg/ml [%] | Neutralizing activity (%) Mean at 0.0685871 µg/ml [%] | Neutralizing activity (%) Mean at 0.2057613 µg/ml [%] | Neutralizing activity (%) Mean at 0.6172839 µg/ml [%] | Neutralizing activity (%) Mean at 1.851852 µg/ml [%] | Neutralizing activity (%) Mean at 5.555555 µg/ml [%] | Neutralizing activity (%) Mean at 16.66667 µg/ml [%] | Neutralizing activity (%) Mean at 50 µg/ml [%] |
| --- | --- | --- | --- | --- | --- | --- | --- | --- | --- |
| P2C-1D5 (antibody, V domains shown) VH: not shown VL: SYVLTQPPSVSVAPGKTARITCGGNNIGSKSVHWYQQKPGQAPVLVIYYDSDRPSGIPERFSGSNSGNTATLTISRVEAGDEADYYCQVWDSSSDHHVFGTGTKVTVLG | 10.7 | 4.24 | 5.65 | 8.66 | 12.4 | 16.1 | 33.6 | 64.9 | 90.2 |
| P2C-1C10 (antibody, V domains shown) VH: QVQLVQSGAEVKKPGSSVKVSCKASGGTFSSYAIIWVRQAPGQGLEWMGGIIPIFGTANYAQKFQGRVTITADESTSTAYMELSSLRSEDTAVYYCARVVTGYYFDYWGQGTLVTVSS VL: EIVLTQSPATLSLSPGERATLSCRASQSVSSYLAWYQQKPGQAPRLLIYDASNRATGIPARFSGSGSGTDFTLTISSLEPEDFAVYYCQQRSNWPSFGQGTKLEIKR | 2.62 | -2.34 | 7.78 | 13.4 | 5.92 | 38.5 | 88.9 | 99.9 | 100 |
| P2C-1C8 (antibody, V domains shown) VH: QVQLVESGGGVVQPGRSLRLSCAASGFTFRSYGMHWVRQAPGKGLEWVAVIWYDGSNKYYADSVKGRFTISRDNSKNTLYLQMNSLRAEDTAVYYCARDIEIVVVNIDYWGQGTLVTVSS VL: not shown | – | -7.15 | 2.8 | 4.92 | 10.1 | 8.39 | 23.3 | 34.7 | 59.2 |

molecular target: T1, full length spike (S) protein of …; assay: cell-based or functional assay; remark: another data set of the same source

| Binder | IC50, pseudovirus neutralization [µg/mL] |
| --- | --- |
| P5A-2G7 (antibody, human IgG1, lambda, V domains shown) VH: QVQLQESGPGLVKPSETLSLTCTVSGDSVSSGSYYWSWIRQPPGKGLEWIGYIYYSGSTNYNPSLKSRVTISVDTSKNQFSLKLSSVTAADTAVYYCARERCYYGSGRAPRCVWFDPWGQGTLVTVSS VL: QSALTQPASVSGSPGQSITISCTGTSSDVGGYNYVSWYQQHPGKAPKLMIYDVSNRPSGVSNRFSGSKSGNTASLTISGLQAEDEADYYCSSYTSSSTLVVFGGGTKLTVLG [P5A-2G7, listing 1 of 2 here] | 0.016 |
| P5A-1D2 (antibody, human IgG1, lambda, V domains shown) VH: EVQLVESGGGLIQPGGSLRLSCAASGFIVSSNYMSWVRQAPGKGLEWVSIIYSGGSTYYADSVKGRFTISRDNSNNTLYLQMNSLRAEDTAVYYCARALQVGATSDYFDYWGQGTLVTVSS VL: QSVLTQPPSVSGAPGQRVTISCTGSSSNIGAGYDVHWYQQLPGTAPKLLIYGNSNRPSGVPDRFSGSKSGTSASLAITGLQAEDETDYYCQSCDSSLSVVVFGGGTKLTVLG [P5A-1D2, listing 1 of 2 here] | 0.035 |
| P5A-3C8 (antibody, human IgG1, kappa, V domains shown) VH: EVQLVESGGGLIQPGGSLRLSCAASGFTVSSNYMSWVRQAPGKGLEWVSFIYSGGSTYYADSVKGRFTISRDNSKNTLYLQMNSLRAEDTAVYYCARDLQEHGMDVWGQGTTVTVSS VL: DIQLTQSPSSLSASVGDRVTITCRASQGISSYLAWYQQKPGKAPKLLIYAASTLQSGVPSRFSGSGSGTDFTLTISSLQPEDFATYYCQHLNSYPPGYTFGQGTKLEIKR | 0.024 |

molecular target: T1, full length spike (S) protein of …; assay: cell-based or functional assay; remark: another data set of the same source

| Binder | IC90, Pesudovirus neutralization [µg/mL] | IC80, Pesudovirus neutralization [µg/mL] | IC50, Pesudovirus neutralization [µg/mL] |
| --- | --- | --- | --- |
| P5A-1B6 (antibody, human IgG1, kappa, V domains shown) VH: QVQLVESGGGVVQPGRSLRLSCAASGFTFSSYAMHWVRQAPGKGLEWVAVISYDGSNKYYADSVKGRFTISRDNSKNTLYLQMNSLRAEDTAVYYCARDGQAITMVQGVIGPPFDYWGQGTLVTVSS VL: not shown | 4.2 | – | – |
| P5A-1B8 (antibody, human IgG1, kappa, V domains shown) VH: EVQLVESGGGLIQPGGSLRLSCAASGFTVSSNYMSWVRQAPGKGLEWVSVIYPGGSTFYADSVKGRFTISRDNSKNTLYLQMNSLRAEDTAVYYCARETLAFDYWGQGTLVTVSS VL: DIQLTQSPSFLSASVGDRVTITCRASQGISSYLAWYQQKPGKAPKLLIYAASTLQSGVPSRFSGSGSGTEFTLTISSLQPEDFATYYCQQLNSYPPAFGGGTKVEIKR | 0.137 | 0.0509 | – |
| P5A-1D10 (antibody, human IgG1, lambda, V domains shown) VH: QVQLVESGGGLVKPGGSLRLSCAASQFTFSDYSMTWIRQAPGKGLEWVSYISQSGSTIYYADSVKGRFTISRDNAKNSLYLQMNSLRAEDTAVYYCARGVSPSYVWGSYRSLYHFDYWGQGTLVTVSS VL: QSALTQPASVSGSPGQSITISCTGTSSDVGGYNYVSWYQQHPGKAPKLMIYDVSNRPSGVSNRFSASKSGNTASLTISGLQAEDEADYYCSSFTSSTTVVVFGGGTKLTVLG | 43.8 | 28.9 | 5.72 |
| P5A-3A6 (antibody, human IgG1, lambda, V domains shown) VH: EVQLVESGGGLVQPGRSLRLSCAASGFTFDDYAMHWVRQAPGKGLEWVSGISWNSGTIGYADSVKGRFIISRDNAKNSLYLQMNSLRAEDTALYYCAGGGTMVRGVIAGGGTHPVDDYYGMDVWGQGTTVTVSS VL: QSALTQPASVSGSPGQSITISCTGTSSDVGGYNYVSWYQQHPGKAPKLMIYDVSNRPSGVSNRFSGSKSGNTASLTISGLQAEDEADYYCSSYTSSSTVVFGGGTKLTVLG | 2.77 | 1.27 | 0.234 |
| P4A-1H6 (antibody, human IgG1, kappa, V domains shown) VH: QVQLVESGGGVVQPGRSLRLSCAASGFTFSSYGMHWVRQSPGKGLEWVAVISDDGSNQYYADSVKGRFTISRDNSKNTLYLQMNSLRVEDTAVYYCAKRGGYCSTTSCLLRWVYFDFWGQGTLATVSS VL: DIQMTQSPSSLSASVGDRVTITCRASQSISSYLHWYQQKPGKAPNLLIYAASSLQSGVPSRFSGSGSGTDFTLTISSLQPEDFATYYCQQSYNTPTFGPGTKVDIKR | 2.21 | – | – |
| P5A-2G9 (antibody, human IgG1, lambda, V domains shown) VH: QVQLVESGGGVVQPGRSLRLSCAASGFTFSSYGMHWVRQAPGKGLEWVAVIWYDGSNKYYADSVKGRFTISRDNSKNTLYLQMNSLRAEDTAVYYCARWFHTGGYFDYWGQGTLVTVSS VL: QPVLTQPPSSSASPGESARLTCTLPSDINVSSYNIYWYQQKPGSPPRYLLYYYSDSDKGQGSGVPSRFSGSKDASANTGILLISGLQSEDEADYYCMIWPSNALYVFGTGTKVTVLG [P5A-2G9, listing 1 of 2 here] | 0.498 | 0.147 | 0.0158 |
| P5A-3C12 (antibody, human IgG1, kappa, V domains shown) VH: QITLKESGPTLVKPTQTLTLTCTFSGFSLSTSGVGVGWIRQPPGKALEWLALIYWDDDKRYSPSLKSRLTITKDTSKNQVVLTMTNMDPVDTATYYCAHSLFLTVGYSSSWSPFDYWGQGTLVTVSS VL: not shown | 0.955 | – | – |
| P22A-1D1 (antibody, human IgG1, kappa, V domains shown) VH: EVQLVESGGGLIQPGGSLRLSCAASGFTVSSNYMSWVRQAPGKGLEWVSVIYSGGSTYYADSVKGRFTISRDNSKNTLYLQMNSLRAEDTAVYYCARDRDYYGMDVWGQGTTVTVSS VL: DIQLTQSPSFLSASVGDRVTITCRASQGISSYLAWYQQKPGKAPKLLIYAASTLQSGVPSRFSGSGSGTEFTLTISSLQPEDFATYYCLHLNSYRTFGLGTKVEIKR | 0.399 | – | – |
| P5A-3A1 (antibody, V domains shown) VH: EVQLVESGGGLIQPGGSLRLSCAASGFTVSSNYMSWVRQAPGKGLEWVSVIYSGGSTYYADSVKGRFTISRDNSKNTLYLQMNSLRAEDTAVYYCARDYGDFYFDYWGQGTLVTVSS VL: not shown | 7.2 | – | – |
| P5A-1D1 (antibody, V domains shown) VH: EVQLVESGGGLIQPGGSLRLSCAASGLTVSSNYMSWVRQAPGKGLEWVSVIYSGGSTYYADSVKGRFTISRDNSKNTLYLQMNSLRAEDTAVYYCARDLYYYGMDVWGQGTTVTVST VL: DIQLTQSPSFLSASVGDRVTITCRASQGISSYLAWYQQKPGKAPKLLIYAASTLQSGVPSRFSGSGSGTDFTLTISSLQPEDFATYYCQQLNSYPTFGQGTRLEIKR | 0.232 | – | – |

molecular target: full length S protein of SARS-CoV-2 (on pseudovirus) (SARS-CoV-2, UniProt P0DTC2 14-1273); assay: cell-based or functional assay

| Binder | Pseudovirus IC50 [µg/mL] | Pseudovirus IC80 [µg/mL] |
| --- | --- | --- |
| P5A-2G7 (antibody, human IgG1, lambda, V domains shown) VH: QVQLQESGPGLVKPSETLSLTCTVSGDSVSSGSYYWSWIRQPPGKGLEWIGYIYYSGSTNYNPSLKSRVTISVDTSKNQFSLKLSSVTAADTAVYYCARERCYYGSGRAPRCVWFDPWGQGTLVTVSS VL: QSALTQPASVSGSPGQSITISCTGTSSDVGGYNYVSWYQQHPGKAPKLMIYDVSNRPSGVSNRFSGSKSGNTASLTISGLQAEDEADYYCSSYTSSSTLVVFGGGTKLTVLG [P5A-2G7, listing 2 of 2 here] | 0.0044 | 0.0287 |
| P5A-1D2 (antibody, human IgG1, lambda, V domains shown) VH: EVQLVESGGGLIQPGGSLRLSCAASGFIVSSNYMSWVRQAPGKGLEWVSIIYSGGSTYYADSVKGRFTISRDNSNNTLYLQMNSLRAEDTAVYYCARALQVGATSDYFDYWGQGTLVTVSS VL: QSVLTQPPSVSGAPGQRVTISCTGSSSNIGAGYDVHWYQQLPGTAPKLLIYGNSNRPSGVPDRFSGSKSGTSASLAITGLQAEDETDYYCQSCDSSLSVVVFGGGTKLTVLG [P5A-1D2, listing 2 of 2 here] | 0.0186 | 0.102 |
| P5A-2G9 (antibody, human IgG1, lambda, V domains shown) VH: QVQLVESGGGVVQPGRSLRLSCAASGFTFSSYGMHWVRQAPGKGLEWVAVIWYDGSNKYYADSVKGRFTISRDNSKNTLYLQMNSLRAEDTAVYYCARWFHTGGYFDYWGQGTLVTVSS VL: QPVLTQPPSSSASPGESARLTCTLPSDINVSSYNIYWYQQKPGSPPRYLLYYYSDSDKGQGSGVPSRFSGSKDASANTGILLISGLQSEDEADYYCMIWPSNALYVFGTGTKVTVLG [P5A-2G9, listing 2 of 2 here] | 0.0158 | 0.147 |
